Experimental data taken from patent publication US20250325643A1 (Genmab, published 2025).

Assays:
[1] = molecular target: T1, human CD27 expressed on cells (T cells, transfected HEK293F cells, Daudi cells, NFκB-luc2/CD27 Jurkat … (human, UniProt P26842 20-240)); assay: flow cytometry on T cells in human PBMC (endogenous CD27), PE-labelled goat anti-human IgG, median MFI PE
T1 construct: also called TNFRSF7
T1 sequence: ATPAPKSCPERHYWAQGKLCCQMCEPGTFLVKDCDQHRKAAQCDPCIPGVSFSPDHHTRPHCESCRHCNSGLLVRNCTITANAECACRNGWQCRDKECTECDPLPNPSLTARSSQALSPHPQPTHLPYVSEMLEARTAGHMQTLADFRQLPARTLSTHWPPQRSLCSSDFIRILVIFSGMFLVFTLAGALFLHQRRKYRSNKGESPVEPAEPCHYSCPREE
Procedure: (§1) Non-binding control antibody IgG1-b12-FEAR was used as negative control antibody. *N.B. IgG1-CD27-A, -B, -C, -D and -E carried mutations F405L-L234F-L235E-D265A in the IgG Fc domain, which are functionally irrelevant in the context of this experiment.
(§2) Cells were seeded in 96-wells plates (100,000 cells per well; Greiner Bio-one, Cat #650180) for sequential incubations, with washing steps in between with FACS buffer, consisting of PBS (Lonza, Cat #BE17-517Q)+1% BSA (Roche, Cat #10735086001)+0.02% Sodium Azide (Bio-World, Cat #41920044-3). The following incubations were applied: antibody concentration series (0.0001-10 μg/mL final concentration) for 30 min at 4° C.; live/dead marker FVS510 (BD, Cat #564406, diluted 1:1,000 in PBS) for 20 min at RT; PE-labeled polyclonal goat anti-human IgG (Jackson Immuno Research, Cat #109-116-098, diluted 1:500) for 30 min at 4° C.; and anti-CD3 antibody for T-cell identification (anti-human CD3: BD, Cat #555335, diluted 1:10; anti-cyno CD3: Miltenyi, Cat #130-091-998, diluted 1:10) for 30 min at 4° C. All samples were analyzed on a FACSCelesta flow cytometer (BD) and FlowJo software. Data were processed and visualized using GraphPad Prism.

[2] = molecular target: T2, cynomolgus monkey CD27 expressed on cells (cynomolgus monkey T cells, transfected HEK293F cells) (cynomolgus monkey, UniProt P26842 20-260 (human entry)); assay: flow cytometry on T cells in cynomolgus monkey PBMC (endogenous CD27), PE-labelled goat anti-human IgG, median MFI PE
T2 construct: also called cyno CD27
T2 chain: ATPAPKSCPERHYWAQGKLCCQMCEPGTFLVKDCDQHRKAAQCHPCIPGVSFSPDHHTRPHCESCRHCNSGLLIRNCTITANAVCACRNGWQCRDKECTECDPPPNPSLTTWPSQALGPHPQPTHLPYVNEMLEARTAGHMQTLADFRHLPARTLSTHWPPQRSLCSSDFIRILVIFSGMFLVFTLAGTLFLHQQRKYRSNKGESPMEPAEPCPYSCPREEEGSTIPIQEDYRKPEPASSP
Procedure: as §1, §2

[3] = molecular target: T1, human CD27 expressed on cells (T cells, …); assay: flow cytometry on HEK293F cells transiently transfected with human CD27, PE-labelled goat anti-human IgG, median MFI PE
[4] = molecular target: T3, human CD27-A59T variant expressed on transiently transfected HEK293F cells (human, UniProt P26842 20-260); assay: flow cytometry on HEK293F cells transiently transfected with human CD27-A59T, PE-labelled goat anti-human IgG, median MFI PE
T3 sequence: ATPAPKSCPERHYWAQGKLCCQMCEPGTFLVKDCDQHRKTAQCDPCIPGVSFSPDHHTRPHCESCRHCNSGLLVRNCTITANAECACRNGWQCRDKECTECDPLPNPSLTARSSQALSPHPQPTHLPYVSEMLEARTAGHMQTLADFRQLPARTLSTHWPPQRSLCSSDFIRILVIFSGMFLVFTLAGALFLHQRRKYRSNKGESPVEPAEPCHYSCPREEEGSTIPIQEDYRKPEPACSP
Procedure: Approximately 19% of the human population expresses a natural CD27 variant harboring an A59T mutation in the extracellular domain (SEQ ID NO. 2). […] Non-binding antibody IgG1-b12-FEAL was used as a negative control antibody. […] After incubation, antibodies were PE-labeled with polyclonal goat anti-human IgG. Binding was analyzed on a FACSCelesta flow cytometer (BD) and FlowJo software. Data were processed and visualized using GraphPad Prism v.8. *N.B. IgG1-CD27-A, -B and -C carried mutations F405L-L234F-L235E-D265A in the IgG Fc domain, which are functionally irrelevant in the context of this experiment.

[5] = molecular target: T2, cynomolgus monkey CD27 expressed on …; assay: flow cytometry on HEK293F cells transiently transfected with cynomolgus monkey CD27, PE-labelled goat anti-human IgG, median MFI PE
Procedure: as §1, §2

[6] = molecular target: T4, recombinant His-tagged human FcγRIa (Sino Biological, Cat #10256-H08S-B) (human, UniProt P12314 16-288); assay: SPR (Biacore): His-tagged FcγRIa captured on an anti-His chip, antibody injected; resonance units against antibody concentration
T4 construct: Bought protein; not shown: His tag
Procedure: Binding of IgG1-CD27-A-P329R-E345R to human FcγR variants was analyzed using a Biacore surface plasmon resonance (SPR) system and compared to an anti-HIV gp120 antibody IgG1-b12 (ctrl). Biacore Series S Sensor Chips CM5 (Cytiva, Cat #29104988) were covalently coated with anti-His antibody using amine-coupling and His capture kits (Cytiva, Cat #BR100050 and Cat #29234602) according to the manufacturer's instructions. […] After three cycles of buffer, antibody samples were injected for 36 cycles to generate binding curves using antibody ranges of 0-3,000 nM for FcγRI and 0-10,000 nM for the other FcγRs. Each sample that was analyzed on an FcR-coated surface (Active Surface) was also analyzed on a parallel flow-cell without FcR (Reference Surface), which was used for background correction. Dissociation from the anti-His-coated surface was performed by regeneration of the surface using 10 mM Glycine-HCl pH 1.5 (Cytiva, Cat #BR100354). Sensograms were generated using Biacore Insight Evaluation software (Cytiva) and a four-parameter logistic (4PL) fit was applied to calculate relative binding of IgG1-CD27-A-P329R-E345R against the reference sample (ctrl).

[7] = molecular target: T5, human FcγRIa on monocyte-derived macrophages (M0, M1, hMDM) (human, UniProt P12314 16-374); assay: flow cytometry on M0 monocyte-derived macrophages, PE-labelled goat anti-human IgG
T5 construct: whole, on cells; The macrophages also express FcγRII and FcγRIIIa

[8] = molecular target: T1, human CD27 expressed on cells (T cells, …); assay: flow cytometry on CD4+ T cells in human PBMC, FITC-conjugated goat anti-human IgG F(ab')2, median FITC
Procedure: Binding of IgG1-CD27-A-P329R-E345R to CD27 on human healthy donor T cells was characterized in more detail using flow cytometry. Anti-HIV gp120 antibody variant IgG1-b12-P329R-E345R was used as non-binding control antibody (ctrl). Human PBMCs were isolated from buffy coats obtained from human healthy donors. PBMCs (1×10⁵ cells/well) in FACS buffer were added to polystyrene 96-well round-bottom plates (Greiner bio-one, Cat #650101) and pelleted by centrifugation at 300×g for 3 min at 4° C. The cells were resuspended in 50 μL/well serial antibody dilutions in FACS buffer (range 0.0015 to 10 μg/mL in 3-fold dilution steps) and incubated for 30 min at 4° C. Cells were pelleted, washed twice with FACS buffer and incubated in 50 μL/well with FITC-conjugated secondary antibody (FITC AffiniPure F(ab′)₂ fragment goat anti-human IgG, F(ab′)₂ fragment specific, Jackson ImmunoResearch, Cat #109-096-097, diluted 1:100) for 30 min at 4° C. in the dark. […] The samples were measured by flow cytometry on an LSRFortessa (BD) flow cytometer and analyzed using FlowJo software. Binding curves were analyzed using non-linear regression (sigmoidal dose-response with variable slope) using GraphPad Prism 8 software.

[9] = molecular target: T6, human C1q (from normal human serum) (human, UniProt P02745 23-245; P02746 28-253; P02747 29-245); assay: flow cytometry: human T cells opsonised with the antibody, 20% normal human serum as source of C1q, FITC-labelled rabbit anti-human C1q
T6 construct: 20% normal human serum was the source of C1q
T6 sequence (P02745 23-245 limits assumed, chain 1 of 3): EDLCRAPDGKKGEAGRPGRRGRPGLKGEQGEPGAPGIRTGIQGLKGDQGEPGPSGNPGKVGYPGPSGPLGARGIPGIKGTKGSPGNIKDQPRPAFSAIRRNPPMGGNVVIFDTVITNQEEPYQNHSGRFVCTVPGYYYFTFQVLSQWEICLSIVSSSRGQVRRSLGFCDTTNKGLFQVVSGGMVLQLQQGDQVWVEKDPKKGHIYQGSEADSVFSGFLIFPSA
T6 sequence (P02746 28-253 limits assumed, chain 2 of 3): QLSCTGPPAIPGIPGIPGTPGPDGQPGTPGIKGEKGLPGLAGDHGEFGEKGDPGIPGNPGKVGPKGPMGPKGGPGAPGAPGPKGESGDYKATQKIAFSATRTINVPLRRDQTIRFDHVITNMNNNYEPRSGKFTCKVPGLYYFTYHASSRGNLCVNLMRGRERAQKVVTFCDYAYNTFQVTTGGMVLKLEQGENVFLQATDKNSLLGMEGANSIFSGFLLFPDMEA
T6 sequence (P02747 29-245 limits assumed, chain 3 of 3): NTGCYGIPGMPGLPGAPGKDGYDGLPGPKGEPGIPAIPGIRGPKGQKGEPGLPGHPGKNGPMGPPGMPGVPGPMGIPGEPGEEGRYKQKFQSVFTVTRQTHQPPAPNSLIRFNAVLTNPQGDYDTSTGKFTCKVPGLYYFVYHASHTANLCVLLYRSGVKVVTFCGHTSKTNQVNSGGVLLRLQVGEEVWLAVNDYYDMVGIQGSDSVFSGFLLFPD

T4 sequence (P12314 16-288 limits assumed, stated change not applied): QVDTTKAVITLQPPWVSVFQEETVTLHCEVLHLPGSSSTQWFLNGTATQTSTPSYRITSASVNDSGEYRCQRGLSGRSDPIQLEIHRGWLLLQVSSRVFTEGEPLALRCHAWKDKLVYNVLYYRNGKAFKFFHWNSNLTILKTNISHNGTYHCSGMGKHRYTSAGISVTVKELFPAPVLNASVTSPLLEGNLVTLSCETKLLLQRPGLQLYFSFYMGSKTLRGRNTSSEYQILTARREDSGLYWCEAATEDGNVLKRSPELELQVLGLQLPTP
T5 sequence (P12314 16-374): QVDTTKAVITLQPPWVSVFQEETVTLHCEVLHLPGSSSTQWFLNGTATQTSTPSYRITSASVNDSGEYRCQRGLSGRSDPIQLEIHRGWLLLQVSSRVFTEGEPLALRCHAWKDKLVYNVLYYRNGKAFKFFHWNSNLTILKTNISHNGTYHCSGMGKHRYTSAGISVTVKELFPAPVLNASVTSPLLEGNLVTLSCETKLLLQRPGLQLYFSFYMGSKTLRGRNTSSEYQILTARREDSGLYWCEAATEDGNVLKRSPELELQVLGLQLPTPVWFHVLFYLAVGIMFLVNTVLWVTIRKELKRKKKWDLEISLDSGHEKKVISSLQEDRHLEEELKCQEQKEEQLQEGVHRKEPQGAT

B1: IgG1-CD27-A carrying mutations F405L-L234F-L235E-D265A in the IgG Fc domain (antibody, V domains shown)
VH: QVQLMQSGSELKKPGASVKVSCRASGYTFTTYAMNWVRQAPGQGPEWMGWINTNTGNPTYAQGFTGRFVFSLDTTVTTTYLQISSLKAEDTAVYFCAREAGSFDYWGQGTLVTVSS
VL: QSALTQPASVSGSPGQSITISCTGTSSDVYYYNYVSWYQQHPGRAPKLVIYDVSNRPSGVSNRFSGSKSGNTASLTISGLRAEDEADYYCSSYTVNRVWVFGGGTKLTVL
What does the source list for B1?
EC50 (read off the curve) [1]: ~0.04 µg/mL; EC50 (read off the curve) [2]: ~0.04 µg/mL; EC50 (read off the curve) [3]: ~0.1 µg/mL; EC50 (read off the curve) [4]: ~0.2 µg/mL; EC50 (read off the curve) [5]: ~0.06 µg/mL

B2: IgG1-b12 (wild-type IgG1 Fc) (antibody)
VH: not shown
VL: EIVLTQSPGTLSLSPGERATFSCRSSHSIRSRRVAWYQHKPGQAPRLVIHGVSNRASGISDRFSGSGSGTDFTLTITRVEPEDFALYYCQVYGASSYTFGQGTKLERKRTVAAPSVFIFPPSDEQLKSGTASVVCLLNNFYPREAKVQWKVDNALQSGNSQESVTEQDSKDSTYSLSSTLTLSKADYEKHKVYACEVTHQGLSSPVTKSFNRGEC
notes: also called WT IgG1-b12; ctrl
With B2 as the binder, how does the “EC50 (read off the curve)” value [6] read?
Its value is ~60 nM.

B3: IgG1-b12-P329R-E345R (antibody)
VH: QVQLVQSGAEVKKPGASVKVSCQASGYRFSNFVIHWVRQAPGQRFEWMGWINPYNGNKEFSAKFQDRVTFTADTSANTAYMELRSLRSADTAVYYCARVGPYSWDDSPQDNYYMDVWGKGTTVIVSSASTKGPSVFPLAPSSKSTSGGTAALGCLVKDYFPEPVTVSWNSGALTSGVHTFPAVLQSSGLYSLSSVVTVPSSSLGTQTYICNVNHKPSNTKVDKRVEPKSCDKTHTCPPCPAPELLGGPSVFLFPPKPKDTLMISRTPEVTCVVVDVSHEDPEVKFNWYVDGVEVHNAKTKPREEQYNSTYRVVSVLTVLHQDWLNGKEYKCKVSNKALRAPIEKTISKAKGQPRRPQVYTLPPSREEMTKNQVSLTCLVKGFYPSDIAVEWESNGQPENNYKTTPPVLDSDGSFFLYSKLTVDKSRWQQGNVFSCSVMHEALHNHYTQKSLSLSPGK
VL: EIVLTQSPGTLSLSPGERATFSCRSSHSIRSRRVAWYQHKPGQAPRLVIHGVSNRASGISDRFSGSGSGTDFTLTITRVEPEDFALYYCQVYGASSYTFGQGTKLERKRTVAAPSVFIFPPSDEQLKSGTASVVCLLNNFYPREAKVQWKVDNALQSGNSQESVTEQDSKDSTYSLSSTLTLSKADYEKHKVYACEVTHQGLSSPVTKSFNRGEC
notes: also called ctrl; IgG1-b12-E345R-P329R
Which results are given for B3?
binding result [7]: no binding (tested: 30 µg/mL); binding result [8]: no binding (tested: 10 µg/ml)

B4: IgG1-b12-FEAL (antibody, V domains shown)
VH: QVQLVQSGAEVKKPGASVKVSCQASGYRFSNFVIHWVRQAPGQRFEWMGWINPYNGNKEFSAKFQDRVTFTADTSANTAYMELRSLRSADTAVYYCARVGPYSWDDSPQDNYYMDVWGKGTTVIVSS
VL: EIVLTQSPGTLSLSPGERATFSCRSSHSIRSRRVAWYQHKPGQAPRLVIHGVSNRASGISDRFSGSGSGTDFTLTITRVEPEDFALYYCQVYGASSYTFGQGTKLERK
notes: also called ctrl
Does B4 bind [4]?
Result: no binding (tested: 10 µg/mL)

B5: IgG1-CD27-A (wild-type IgG1 Fc) (antibody)
VH: not shown
VL: QSALTQPASVSGSPGQSITISCTGTSSDVYYYNYVSWYQQHPGRAPKLVIYDVSNRPSGVSNRFSGSKSGNTASLTISGLRAEDEADYYCSSYTVNRVWVFGGGTKLTVLGQPKAAPSVTLFPPSSEELQANKATLVCLISDFYPGAVTVAWKADSSPVKAGVETTTPSKQSNNKYAASSYLSLTPEQWKSHRSYSCQVTHEGSTVEKTVAPTECS
notes: Human IgG1 heavy chain backbone, wild-type Fc; also called WT IgG1-CD27-A; IgG-CD27-A
Does B5 bind [9]?
Result: no binding (tested: 15 µg/mL)
